Assay results published in PMC4626060 (Molecular Biology of the Cell, 2015).

T1: full-length glutathione S-transferase (GST)-Mps1 (UniProt P33981 1-857)
T1 sequence: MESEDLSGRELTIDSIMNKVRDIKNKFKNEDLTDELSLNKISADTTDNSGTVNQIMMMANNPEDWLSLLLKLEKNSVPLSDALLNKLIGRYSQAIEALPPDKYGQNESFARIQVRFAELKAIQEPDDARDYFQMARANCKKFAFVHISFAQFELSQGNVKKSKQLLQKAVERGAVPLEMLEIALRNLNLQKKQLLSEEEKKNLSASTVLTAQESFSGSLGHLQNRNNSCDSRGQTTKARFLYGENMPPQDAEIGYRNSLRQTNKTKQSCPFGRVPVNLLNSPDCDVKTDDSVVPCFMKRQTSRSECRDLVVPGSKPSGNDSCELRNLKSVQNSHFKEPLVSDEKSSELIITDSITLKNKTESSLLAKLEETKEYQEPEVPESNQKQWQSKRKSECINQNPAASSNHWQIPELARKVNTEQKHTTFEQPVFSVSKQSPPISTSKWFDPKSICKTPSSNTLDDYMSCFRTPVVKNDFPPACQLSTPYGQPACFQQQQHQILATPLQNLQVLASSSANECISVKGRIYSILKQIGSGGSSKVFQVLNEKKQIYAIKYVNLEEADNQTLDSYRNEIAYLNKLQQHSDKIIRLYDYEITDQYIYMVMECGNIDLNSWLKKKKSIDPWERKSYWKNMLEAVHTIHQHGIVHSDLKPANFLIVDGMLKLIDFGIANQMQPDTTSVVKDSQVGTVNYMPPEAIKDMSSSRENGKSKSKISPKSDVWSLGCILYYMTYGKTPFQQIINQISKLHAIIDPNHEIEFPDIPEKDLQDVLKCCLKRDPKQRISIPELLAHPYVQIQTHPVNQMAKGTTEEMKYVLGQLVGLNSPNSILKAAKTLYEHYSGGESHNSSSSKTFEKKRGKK

B1: recombinant His-Cetn3 (natural protein)
chain: MSLALRSELVVDKTKRKKRRELSEEQKQEIKDAFELFDTDKDEAIDYHELKVAMRALGFDVKKADVLKILKDYDREATGKITFEDFNEVVTDWILERDPHEEILKAFKLFDDDDSGKISLRNLRRVARELGENMSDEELRAMIEEFDKDGDGEINQEEFIAIMTGDI
B2: recombinant His-Cetn2 (natural protein)
chain: MASNFKKANMASSSQRKRMSPKPELTEEQKQEIREAFDLFDADGTGTIDVKELKVAMRALGFEPKKEEIKKMISEIDKEGTGKMNFGDFLTVMTQKMSEKDTKEEILKAFKLFDDDETGKISFKNLKRVAKELGENLTDEELQEMIDEADRDGDGEVSEQEFLRIMKKTSLY

Molecular target: T1, full-length glutathione S-transferase …
Test: pull-down

Binder	fold binding to GST-Mps1 with 5 mM MgCl2 against without [fold]	fold binding to GST-Mps1 on coincubation with Cetn3 against Cetn2 alone [fold]
B1	2.59 ± 0.91	
B2		3.39 ± 1.96
